Reference: the supplement of paper PMC9732359
± gives the uncertainty stated by the source.

Assay: protein stability index of a GFP-peptide fusion (yeast GPS) (PSI 1-4); higher = more stable; sorted into four equal gates, so the index is relative within each strain
Outline: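 Yeast carrying a pooled library were grown to mid-log phase in leucine-free medium. Each library plasmid expresses Cherry and has a tiled 17-residue yeast protein peptide fused downstream of GFP. Cells were sorted into four equal gates by GFP/Cherry ratio, and plasmids from each gate were PCR-amplified, Illumina-sequenced and assigned to strains by barcode. Summing, across gates, the read frequency times the gate number gave each peptide's protein stability index.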

## TELLDYATKLSKFTKIP [MED4]
pdr5∆
  protein stability index: 2.71 ± 0.23
san1∆
  protein stability index: 2.98 ± 0.16

## LYKTFFKRNAVFVGTIF [QCR9]
doa10∆
  protein stability index: 1.78 ± 0.075
pdr5∆
  protein stability index: 1.36 ± 0.051
san1∆
  protein stability index: 1.39 ± 0.098
ubr1∆
  protein stability index: 1.36 ± 0.054

## SFGTANTNGTNASANST [YOR098C/NUP1]
doa10∆
  protein stability index: 3.04 ± 0.11
pdr5∆
  protein stability index: 3.02 ± 0.11
san1∆
  protein stability index: 2.75 ± 0.15
ubr1∆
  protein stability index: 2.85 ± 0.12

## VTALEVLSLGRPNLPTH [RGR1]
doa10∆
  protein stability index: 2.93 ± 0.14
san1∆
  protein stability index: 2.18 ± 0.14
ubr1∆
  protein stability index: 2.33 ± 0.079

## NAASGSNSNVTNPSSIF [YOR098C/NUP1]
doa10∆
  protein stability index: 2.83 ± 0.049
pdr5∆
  protein stability index: 2.74 ± 0.047
san1∆
  protein stability index: 2.3 ± 0.049
ubr1∆
  protein stability index: 2.73 ± 0.049

## QANQVKRHSYAQSSHIR [RPS1A]
doa10∆
  protein stability index: 2.528 ± 0.023
pdr5∆
  protein stability index: 2.622 ± 0.021
san1∆
  protein stability index: 2.564 ± 0.025
ubr1∆
  protein stability index: 2.471 ± 0.019

## QRDAEISQPKSMSGRIS [BRR2]
doa10∆
  protein stability index: 3.22 ± 0.058
pdr5∆
  protein stability index: 3.3 ± 0.055
san1∆
  protein stability index: 3.23 ± 0.062
ubr1∆
  protein stability index: 3.18 ± 0.051

## ELDILNKGWKLQSLNES [SRB4]
pdr5∆
  protein stability index: 3.05 ± 0.21
san1∆
  protein stability index: 3 ± 0.18

## KYPIFTGESWVKLTYNS [YDL088C/ASM4]
doa10∆
  protein stability index: 1.82 ± 0.049
pdr5∆
  protein stability index: 2.07 ± 0.068
san1∆
  protein stability index: 2.07 ± 0.1
ubr1∆
  protein stability index: 2.34 ± 0.058

## ASKTNLRLTDVTNSLSN [GAL11]
doa10∆
  protein stability index: 3.15 ± 0.072
pdr5∆
  protein stability index: 3.38 ± 0.067
san1∆
  protein stability index: 2.96 ± 0.051
ubr1∆
  protein stability index: 3.28 ± 0.064

## SHLFNEYSYVDSNMDSI [RPN4]
doa10∆
  protein stability index: 3.26 ± 0.1
pdr5∆
  protein stability index: 3.56 ± 0.087
san1∆
  protein stability index: 2.93 ± 0.1
ubr1∆
  protein stability index: 3.06 ± 0.069

## NRKRIVTLRKSLYTNTS [RPL3]
doa10∆
  protein stability index: 2.66 ± 0.069
pdr5∆
  protein stability index: 2.27 ± 0.065
san1∆
  protein stability index: 1.66 ± 0.087
ubr1∆
  protein stability index: 1.73 ± 0.076

## FGTGQSTFGFNNSAPNN [YJL041W/NSP1]
doa10∆
  protein stability index: 3.17 ± 0.046
pdr5∆
  protein stability index: 3.29 ± 0.051
san1∆
  protein stability index: 3.1 ± 0.04
ubr1∆
  protein stability index: 3.3 ± 0.036

## ATPFRQWFEAHYGQTLG [RPS8A]
doa10∆
  protein stability index: 2.436 ± 0.022
pdr5∆
  protein stability index: 2.787 ± 0.024
san1∆
  protein stability index: 2.7 ± 0.021
ubr1∆
  protein stability index: 2.573 ± 0.019

## NLEFNYTKPYPNFEASF [SMC2]
doa10∆
  protein stability index: 2.76 ± 0.09
pdr5∆
  protein stability index: 2.21 ± 0.1
san1∆
  protein stability index: 2.43 ± 0.15
ubr1∆
  protein stability index: 2.74 ± 0.13

## DADKLSFNCENFFQAPQ [YML031W/NDC1]
doa10∆
  protein stability index: 2.37 ± 0.08
pdr5∆
  protein stability index: 2.15 ± 0.058
san1∆
  protein stability index: 2.36 ± 0.06
ubr1∆
  protein stability index: 2.3 ± 0.058

## LFKRDCNQMENLLESIT [YCS4]
pdr5∆
  protein stability index: 2.17 ± 0.12
ubr1∆
  protein stability index: 2.38 ± 0.22

## DSIGSTRVEGSGGGDSE [RPT6]
doa10∆
  protein stability index: 2.6 ± 0.1
pdr5∆
  protein stability index: 2.65 ± 0.11
san1∆
  protein stability index: 3.1 ± 0.065
ubr1∆
  protein stability index: 2.97 ± 0.064

## TKEMDEVEEDDEDDDQP [SWI3]
doa10∆
  protein stability index: 3.39 ± 0.12
pdr5∆
  protein stability index: 3.49 ± 0.068
san1∆
  protein stability index: 3.48 ± 0.056
ubr1∆
  protein stability index: 3.27 ± 0.066

## ILNLLNILTTHLSHPGT [ECM29]
doa10∆
  protein stability index: 2.03 ± 0.042
pdr5∆
  protein stability index: 1.75 ± 0.04
san1∆
  protein stability index: 1.65 ± 0.05
ubr1∆
  protein stability index: 1.76 ± 0.037

## GRRLSMLASQANGGSTI [DSN1]
doa10∆
  protein stability index: 2.1 ± 0.057
pdr5∆
  protein stability index: 2.7 ± 0.074
san1∆
  protein stability index: 2.42 ± 0.071
ubr1∆
  protein stability index: 2.29 ± 0.047

## DLSVTPQKSSSKGFVFN [YAR002W/NUP60]
doa10∆
  protein stability index: 2.74 ± 0.089
pdr5∆
  protein stability index: 3.06 ± 0.12
san1∆
  protein stability index: 2.88 ± 0.057
ubr1∆
  protein stability index: 3.06 ± 0.12

## SASKHEYSDNFPVSLSQ [SIR4]
doa10∆
  protein stability index: 3 ± 0.045
pdr5∆
  protein stability index: 2.71 ± 0.039
san1∆
  protein stability index: 3.06 ± 0.04
ubr1∆
  protein stability index: 3.041 ± 0.029

## VVEACGNIVAELAQDPQ [YCS4]
doa10∆
  protein stability index: 2.75 ± 0.082
pdr5∆
  protein stability index: 3.38 ± 0.15
san1∆
  protein stability index: 3.04 ± 0.1
ubr1∆
  protein stability index: 2.12 ± 0.093

## SELNEGNLSKREIQIDA [SRB8]
doa10∆
  protein stability index: 2.69 ± 0.062
pdr5∆
  protein stability index: 2.88 ± 0.073
san1∆
  protein stability index: 2.98 ± 0.069
ubr1∆
  protein stability index: 2.12 ± 0.063

## RFVLSDDYSNLKREERQ [SMC3]
doa10∆
  protein stability index: 2.27 ± 0.085
pdr5∆
  protein stability index: 2.65 ± 0.081
san1∆
  protein stability index: 2.43 ± 0.093
ubr1∆
  protein stability index: 2.7 ± 0.059

## AAQTLLQMDYKDDMKVD [PRE9]
doa10∆
  protein stability index: 3.3 ± 0.1
pdr5∆
  protein stability index: 3.3 ± 0.068
san1∆
  protein stability index: 3.25 ± 0.063
ubr1∆
  protein stability index: 3.26 ± 0.084

## QGGFYKQQDAEELFTQL [UBP6]
doa10∆
  protein stability index: 3.38 ± 0.078
pdr5∆
  protein stability index: 3.44 ± 0.12
san1∆
  protein stability index: 3.07 ± 0.097
ubr1∆
  protein stability index: 3.21 ± 0.075

## HRLIATHTNLERDEQKR [SNF2]
doa10∆
  protein stability index: 3.38 ± 0.069
pdr5∆
  protein stability index: 3.25 ± 0.074
san1∆
  protein stability index: 3.01 ± 0.11
ubr1∆
  protein stability index: 3.32 ± 0.048

## VRTNRFDIIEESFKGLQ [ECM29]
doa10∆
  protein stability index: 2.6 ± 0.099
pdr5∆
  protein stability index: 2.47 ± 0.13
san1∆
  protein stability index: 2.18 ± 0.12
ubr1∆
  protein stability index: 2.26 ± 0.1

## GRVYRPLFIVEDDESLG [RPB2]
doa10∆
  protein stability index: 1.71 ± 0.063
pdr5∆
  protein stability index: 1.8 ± 0.087
san1∆
  protein stability index: 1.59 ± 0.1
ubr1∆
  protein stability index: 1.69 ± 0.034

## DLSRIMDWLDNWGRKEH [ITC1]
doa10∆
  protein stability index: 3.31 ± 0.2
pdr5∆
  protein stability index: 3.33 ± 0.26
san1∆
  protein stability index: 3.48 ± 0.14

## RSKSSHKNERRVLEIQT [SKI6]
doa10∆
  protein stability index: 3.22 ± 0.097
pdr5∆
  protein stability index: 3.35 ± 0.087
san1∆
  protein stability index: 3.23 ± 0.084
ubr1∆
  protein stability index: 3.37 ± 0.061

## DITTSIMDNFLERTAIE [RPN1]
doa10∆
  protein stability index: 3.21 ± 0.12
pdr5∆
  protein stability index: 3.35 ± 0.17
san1∆
  protein stability index: 3.22 ± 0.086
ubr1∆
  protein stability index: 3.28 ± 0.12

## LFKALKVILNERGGKFH [RGR1]
doa10∆
  protein stability index: 2.44 ± 0.075
pdr5∆
  protein stability index: 2.64 ± 0.068
san1∆
  protein stability index: 2.17 ± 0.094
ubr1∆
  protein stability index: 2.64 ± 0.059

## FEFNIRHSGKVYPITLS [UBP6]
doa10∆
  protein stability index: 1.74 ± 0.11
pdr5∆
  protein stability index: 2.51 ± 0.12
san1∆
  protein stability index: 2.89 ± 0.089
ubr1∆
  protein stability index: 1.22 ± 0.056

## KIVEIDRHIGCAMSGLT [PUP2]
doa10∆
  protein stability index: 1.82 ± 0.07
pdr5∆
  protein stability index: 2.32 ± 0.091
san1∆
  protein stability index: 2 ± 0.14
ubr1∆
  protein stability index: 2.17 ± 0.06

## RQMNLVITLLNNSSITL [YCS4]
doa10∆
  protein stability index: 1.37 ± 0.05
pdr5∆
  protein stability index: 1.18 ± 0.039
san1∆
  protein stability index: 1.19 ± 0.08
ubr1∆
  protein stability index: 1.35 ± 0.035

## KSTPEGTLWAHVLKTVD [SNU114]
doa10∆
  protein stability index: 2.1 ± 0.058
pdr5∆
  protein stability index: 1.93 ± 0.048
san1∆
  protein stability index: 2.43 ± 0.072
ubr1∆
  protein stability index: 2.27 ± 0.038

## EYAALASLADVMSIESL [FAS1]
doa10∆
  protein stability index: 3.07 ± 0.069
pdr5∆
  protein stability index: 3.11 ± 0.068
san1∆
  protein stability index: 3.14 ± 0.069
ubr1∆
  protein stability index: 3.07 ± 0.053

## KYNRYEKRHKNVPVHVS [RPS11A]
doa10∆
  protein stability index: 1.61 ± 0.041
pdr5∆
  protein stability index: 1.66 ± 0.044
san1∆
  protein stability index: 1.69 ± 0.092
ubr1∆
  protein stability index: 1.94 ± 0.055

## LLENSVDKNFDKLELYV [MTW1]
doa10∆
  protein stability index: 3.03 ± 0.052
pdr5∆
  protein stability index: 2.64 ± 0.065
san1∆
  protein stability index: 3.15 ± 0.065
ubr1∆
  protein stability index: 2.97 ± 0.048

## PQIRQEIEQLDQYIQKQ [YGL172W/NUP49]
doa10∆
  protein stability index: 2.7 ± 0.061
pdr5∆
  protein stability index: 2.76 ± 0.046
san1∆
  protein stability index: 2.54 ± 0.054
ubr1∆
  protein stability index: 2.78 ± 0.049

## NYASVYPVVEVERGRVG [RRP43]
doa10∆
  protein stability index: 3.48 ± 0.14
pdr5∆
  protein stability index: 3.57 ± 0.11
san1∆
  protein stability index: 3.43 ± 0.093
ubr1∆
  protein stability index: 3.42 ± 0.056

## SVSLLNSDIANLRTQVT [SMC1]
doa10∆
  protein stability index: 3.04 ± 0.09
pdr5∆
  protein stability index: 3.08 ± 0.064
san1∆
  protein stability index: 3.13 ± 0.096
ubr1∆
  protein stability index: 2.56 ± 0.11

## FGNSLSNTVNANNYSSN [YDL088C/ASM4]
doa10∆
  protein stability index: 2.94 ± 0.084
pdr5∆
  protein stability index: 3 ± 0.09
san1∆
  protein stability index: 3.08 ± 0.072
ubr1∆
  protein stability index: 3.18 ± 0.056

## KFNELVKLMKNITDYET [BRR2]
doa10∆
  protein stability index: 1.11 ± 0.042
pdr5∆
  protein stability index: 1.21 ± 0.06
san1∆
  protein stability index: 1.21 ± 0.14
ubr1∆
  protein stability index: 1.3 ± 0.056

## FDKNTKTTPNTASSEAS [YMR153W/NUP53]
doa10∆
  protein stability index: 2.99 ± 0.051
pdr5∆
  protein stability index: 2.98 ± 0.053
san1∆
  protein stability index: 2.9 ± 0.036
ubr1∆
  protein stability index: 2.8 ± 0.043

## QWSMVAQRLQISDYQQL [SWI1]
doa10∆
  protein stability index: 1.53 ± 0.057
pdr5∆
  protein stability index: 1.65 ± 0.054
san1∆
  protein stability index: 1.59 ± 0.12
ubr1∆
  protein stability index: 1.41 ± 0.054

## DPQQVFDERIKFANQLH [RPN3]
doa10∆
  protein stability index: 1.68 ± 0.09
pdr5∆
  protein stability index: 1.97 ± 0.12
san1∆
  protein stability index: 1.41 ± 0.14
ubr1∆
  protein stability index: 1.33 ± 0.075

## VYGEGTSRVTGILLLDS [YJL039C/NUP192]
doa10∆
  protein stability index: 3.19 ± 0.19
pdr5∆
  protein stability index: 3.31 ± 0.091
ubr1∆
  protein stability index: 3.44 ± 0.091

## KLPLSVINVSAQRDRRY [RPS17A]
doa10∆
  protein stability index: 1.8 ± 0.064
pdr5∆
  protein stability index: 1.77 ± 0.058
san1∆
  protein stability index: 1.43 ± 0.23
ubr1∆
  protein stability index: 1.66 ± 0.15

## DDDISDDEEDEIEENCL [RPN4]
doa10∆
  protein stability index: 3.48 ± 0.1
pdr5∆
  protein stability index: 3.27 ± 0.089
san1∆
  protein stability index: 3.14 ± 0.08
ubr1∆
  protein stability index: 3.32 ± 0.1
